Legend:
[1] = target: T1, recombinant human TSLP-his (human, UniProt Q969D9 29-159, biotin-labeled in the ELISAs); experiment: capture ELISA: antibody captured on anti-human IgG Fc F(ab')2, biotin human TSLP-his, SA-HRP
T1 construct: In-house made; not shown: His tag at the C-terminus
Description: Briefly, 96-well micro plates were coated with 100 μL 2 μg/mL AffiniPure F(ab′)₂ Fragment Goat Anti-Human IgG, Fey fragment specific (Jackson Immuno Research, Cat #109-006-008) in PBS and incubated overnight at 4° C. Plates were washed 4 times with wash buffer (PBS+0.05% Tween-20, PBST) and then blocked with 200 μL/well blocking buffer (5% w/v non-fatty milk in PBST) for 2 hours at 37° C. […] After the final wash, the plates were incubated with 100 μL/well TMB (Innoreagents). The reaction was stopped 15 minutes later at room temperature with 50 μL/well 1M H₂SO₄, and the absorbance of each well was read on a microplate reader using dual wavelength mode with 450 nm for TMB and 630 nm as the reference wavelength. The OD (450-630) values were plotted against antibody concentration. Data was analyzed using Graphpad Prism and EC₅₀ values were reported.

[2] = target: T2, recombinant human IL4Rα-his (human, UniProt P24394 26-231, limits assumed, biotin-labeled in the capture ELISA); experiment: dual-binding ELISA: coated human IL4Rα-his, antibody titrated, detection with biotin human TSLP-his and SA-HRP; signal needs both antigens bound
T2 construct: In-house made; not shown: His tag at the C-terminus
Description: For the dual-binding ELISA, 96-well ELISA plates were firstly coated with 100 μL 1 μg/mL human IL4Rα-his protein (IL4Rα of SEQ ID NO: 33 with His tag at C terminus, prepared in-house) in PBS overnight at 4° C. ELISA plates were washed 4 times with wash buffer (PBS+0.05% Tween-20, PBST) and then blocked with 200 μL/well blocking buffer (5% w/v non-fatty milk in PBST) for 2 hours at 37° C. […] ELISA plates were washed again and incubated with SA-HRP (100 μl/well) for 40 minutes at 37° C. After the final wash, 100 μL/well TMB (Innoreagents) was added. The reaction was stopped 15 minutes later at room temperature with 50 μL/well 1M H₂SO₄, and the absorbance was read on a microplate reader using dual wavelength mode with 450 nm for TMB and 630 nm as the reference wavelength. The OD (450-630) values were plotted against antibody concentration. Data was analyzed using Graphpad Prism and EC₅₀ values were reported.

[3] = target: T2, recombinant human IL4Rα-his; experiment: SPR Biacore T200; antibody captured on anti-human IgG CM5 chip, IL4Rα-his as analyte; 1:1 Langmuir fit
Description: The goat anti-human IgG (GE healthcare, Cat #BR100839, Human Antibody Capture Kit) was covalently linked to a CM5 chip (carboxy methyl dextran coated chip) via primary amines, using a standard amine coupling kit provided by Biacore (GE healthcare, Pittsburgh, PA, USA). Un-reacted moieties on the biosensor surface were blocked with ethanolamine. Then, purified bispecific antibodies of the disclosure at the concentration of 66.67 nM and the controls at 10 μg/mL, were flowed onto the chip at a flow rate of 10 μL/min. Then, serially diluted recombinant human IL4Rα-his (in house made, IL4Rα of SEQ ID NO: 33 with His tag at C-terminus) in HBS EP buffer (provided by Biacore) was flowed onto the chip at a flow rate of 30 μL/min. The association and dissociation curves were fit to a 1:1 Langmuir binding model using BIAcore evaluation software.

[4] = target: T1, recombinant human TSLP-his; experiment: SPR Biacore; TSLP-his amine-coupled to CM5 chip, antibody as analyte; 1:1 Langmuir fit
Description: Un-reacted moieties on the biosensor surface were blocked with ethanolamine. Then, serially diluted purified bispecific antibodies and the controls (2-fold serial dilution in HBS-EP⁺ buffer starting at 100 nM) were respectively flowed onto the chip at a flow rate of 30 μL/min. The antigen-antibody association kinetics was followed for 4 minutes and the dissociation kinetics was followed for 13 minutes.

[5] = target: T3, biotin-labeled human TSLP-Fc (human, biotin-labeled); experiment: cell-based blocking FACS: antibody pre-mixed with biotin human TSLP-Fc; blocked binding to cell-surface TSLPR/IL7Ra on HEK293T-TSLPR/IL7R/STAT5-Luc 5C5 cells
T3 construct: also called TSLP-Fc protein; TSLP-Fc-biotin
Description: The cells were prepared following the instruction of lipofectamine 3000 transfection reagent (Thermo Fisher), by transfecting HEK293T cells (ATCC® CRL-11268) with pCMV-T-P plasmids inserted with TSLPR coding sequence between EcoRI and Xba1 sites and pCMV3-SP plasmids inserted with IL7Ra coding sequence between HindIII and Xba1 sites as well as pGL4.52 [luc2P/STAT5RE/Hygro](Promega).
The cells were harvested from cell culture flasks, washed twice and re-suspended in phosphate buffered saline (PBS) containing 2% v/v Fetal Bovine Serum (FACS buffer). […] Cells were washed twice with FACS buffer, and then added and incubated with 100 μL/well R-Phycoerythrin Streptavidin (1:500 dilution in FACS buffer, Jackson Immunoresearch, Cat #016-110-084) for 40 minutes at 4° C. in dark. Cells were washed twice and re-suspended in FACS buffer. Fluorescence was measured using a Becton Dickinson FACS Canto II-HTS equipment. Data was analyzed using Graphpad Prism and IC₅₀ values were reported.

Binder	EC50 [1] [pM]	EC50 [2] [pM]	Kd [3] [pM]	koff [3] [s⁻¹]	kon [3] [M⁻¹ s⁻¹]	Kd [4] [pM]	koff [4] [s⁻¹]	kon [4] [M⁻¹ s⁻¹]	IC50 [5] [pM]
BSI-502-007 (bispecific antibody, human IgG1, kappa, huC2C1A1A1-V15 IgG with an anti-TSLP scFv (VH-VL) at the N-terminus of the heavy chain; AQQ and YTE already stand in the entry) heavy: QVQLVQSGAEVKKPGASVKVSCKASGYTFTTYWMHWVRQAPGQGLEWMGVIDPSDSDTTYNQKFKGRVTMTRDTSTSTVYMELSSLRSEDTAVYYCTRSLDGYYDYWGQGTLVTVSSGGGGSGGGGSGGGGSGGGGSDIQMTQSPSSLSASVGDRVTITCRPTENIYSYLAWYQQKPGKAPKLLIYFARTLAEGVPSRFSGSGSGTDFTLTISSLQPEDFATYYCQHHYGTPWTFGGGTKVEIKGGGGSGGGGSEVQLVESGGGLVQPGGSLRLSCAASGFTFSTYGMSWVRQAPGKGLVWVATINSNGGSTSYPDSVKGRFTISRDNAKNTLYLQMNSLRAEDTAVYYCARFFRFRNAMDYWGQGTLVTVSSASTKGPSVFPLAPSSKSTSGGTAALGCLVKDYFPEPVTVSWNSGALTSGVHTFPAVLQSSGLYSLSSVVTVPSSSLGTQTYICNVNHKPSNTKVDKKVEPKSCDKTHTCPPCPAPEAQGGPSVFLFPPKPKDTLYITREPEVTCVVVDVSHEDPEVKFNWYVDGVEVHNAKTKPREEQYNSTYRVVSVLTVLHQDWLNGKEYKCQVSNKALPAPIEKTISKAKGQPREPQVYTLPPSRDELTKNQVSLTCLVKGFYPSDIAVEWESNGQPENNYKTTPPVLDSDGSFFLYSKLTVDKSRWQQGNVFSCSVMHEALHNHYTQKSLSLSPG light: DIQMTQSPSSLSASVGDRVTITCRTSENIYSYLAWYQQKPGKAPKFLVYNAKTLAEGVPSRFSGSGSGTDFTLTISSLQPEDFATYYCQHYYGPPTWTFGQGTKVEIKRTVAAPSVFIFPPSDEQLKSGTASVVCLLNNFYPREAKVQWKVDNALQSGNSQESVTEQDSKDSTYSLSSTLTLSKADYEKHKVYACEVTHQGLSSPVTKSFNRGEC	84.4	94.4	2220	0.000399	180000	8.4	3.87e-06	460000	
BSI-502-003 (bispecific antibody, human IgG1, kappa, hu1C5F12E9-V8 IgG with an anti-IL4R scFv (huC2C1A1A1-V15, VH-VL) at the N-terminus of the heavy chain; AQQ and YTE already stand in the entry) heavy: EVQLVESGGGLVQPGGSLRLSCAASGFTFSTYGMSWVRQAPGKGLVWVATINSNGGSTSYPDSVKGRFTISRDNAKNTLYLQMNSLRAEDTAVYYCARFFRFRNAMDYWGQGTLVTVSSGGGGSGGGGSGGGGSGGGGSDIQMTQSPSSLSASVGDRVTITCRTSENIYSYLAWYQQKPGKAPKFLVYNAKTLAEGVPSRFSGSGSGTDFTLTISSLQPEDFATYYCQHYYGPPTWTFGQGTKVEIKGGGGSGGGGSQVQLVQSGAEVKKPGASVKVSCKASGYTFTTYWMHWVRQAPGQGLEWMGVIDPSDSDTTYNQKFKGRVTMTRDTSTSTVYMELSSLRSEDTAVYYCTRSLDGYYDYWGQGTLVTVSSASTKGPSVFPLAPSSKSTSGGTAALGCLVKDYFPEPVTVSWNSGALTSGVHTFPAVLQSSGLYSLSSVVTVPSSSLGTQTYICNVNHKPSNTKVDKKVEPKSCDKTHTCPPCPAPEAQGGPSVFLFPPKPKDTLYITREPEVTCVVVDVSHEDPEVKFNWYVDGVEVHNAKTKPREEQYNSTYRVVSVLTVLHQDWLNGKEYKCQVSNKALPAPIEKTISKAKGQPREPQVYTLPPSRDELTKNQVSLTCLVKGFYPSDIAVEWESNGQPENNYKTTPPVLDSDGSFFLYSKLTVDKSRWQQGNVFSCSVMHEALHNHYTQKSLSLSPG light: DIQMTQSPSSLSASVGDRVTITCRPTENIYSYLAWYQQKPGKAPKLLIYFARTLAEGVPSRFSGSGSGTDFTLTISSLQPEDFATYYCQHHYGTPWTFGGGTKVEIKRTVAAPSVFIFPPSDEQLKSGTASVVCLLNNFYPREAKVQWKVDNALQSGNSQESVTEQDSKDSTYSLSSTLTLSKADYEKHKVYACEVTHQGLSSPVTKSFNRGEC		49.1	2430	0.000534	220000	0.317	1.82e-07	574000	1470
BSI-502-005 (bispecific antibody, human IgG1, kappa, hu1C5F12E9-V8 IgG with an anti-IL4R scFv (VH-VL) at the C-terminus of the heavy chain; AQQ and YTE already stand in the entry) heavy: QVQLVQSGAEVKKPGASVKVSCKASGYTFTTYWMHWVRQAPGQGLEWMGVIDPSDSDTTYNQKFKGRVTMTRDTSTSTVYMELSSLRSEDTAVYYCTRSLDGYYDYWGQGTLVTVSSASTKGPSVFPLAPSSKSTSGGTAALGCLVKDYFPEPVTVSWNSGALTSGVHTFPAVLQSSGLYSLSSVVTVPSSSLGTQTYICNVNHKPSNTKVDKKVEPKSCDKTHTCPPCPAPEAQGGPSVFLFPPKPKDTLYITREPEVTCVVVDVSHEDPEVKFNWYVDGVEVHNAKTKPREEQYNSTYRVVSVLTVLHQDWLNGKEYKCQVSNKALPAPIEKTISKAKGQPREPQVYTLPPSRDELTKNQVSLTCLVKGFYPSDIAVEWESNGQPENNYKTTPPVLDSDGSFFLYSKLTVDKSRWQQGNVFSCSVMHEALHNHYTQKSLSLSPGKGGGGSGGGGSEVQLVESGGGLVQPGGSLRLSCAASGFTFSTYGMSWVRQAPGKGLVWVATINSNGGSTSYPDSVKGRFTISRDNAKNTLYLQMNSLRAEDTAVYYCARFFRFRNAMDYWGQGTLVTVSSGGGGSGGGGSGGGGSGGGGSDIQMTQSPSSLSASVGDRVTITCRTSENIYSYLAWYQQKPGKAPKFLVYNAKTLAEGVPSRFSGSGSGTDFTLTISSLQPEDFATYYCQHYYGPPTWTFGQGTKVEIK light: DIQMTQSPSSLSASVGDRVTITCRPTENIYSYLAWYQQKPGKAPKLLIYFARTLAEGVPSRFSGSGSGTDFTLTISSLQPEDFATYYCQHHYGTPWTFGGGTKVEIKRTVAAPSVFIFPPSDEQLKSGTASVVCLLNNFYPREAKVQWKVDNALQSGNSQESVTEQDSKDSTYSLSSTLTLSKADYEKHKVYACEVTHQGLSSPVTKSFNRGEC	106	77.9	2930	0.000161	54900	< 14.5	< 1e-05	692000	
